Data from patent publication EP0331471A1, “High molecular weight prodrug derivatives of antiinflammatory drugs” (Larsen, Claus Selch, priority 1988, dated 1989).
Where two headings read alike, the source gives them in different places.

Assays:
[1] = Hydrolysis (release kinetics) of dextran ester prodrugs in aqueous buffer solution; assay type: physicochemical; settings: for t(50%) at pH 7.40 and 37°C: 0.05 M phosphate buffer pH 7.40, 37°C; for t(10%) / Arrhenius equation: pH 4.48; for t(10%): time for 10% degradation, calculated from Arrhenius equations; for Ea: hydrolysis at pH 4.48, from slopes of Arrhenius type plots; for Arrhenius equation: kobs in hours⁻¹, T in degrees Kelvin; for kobs: ionic strength 0.5
Protocol: Release kinetics of the parent drug compounds from the corresponding dextran prodrugs of this invention was carried out in aqueous buffer solution over the pH range 4.5 - 10.0 at 37°C (and in order to determine the activation energies, at pH 4.5, from Arrhenius type plots at 50, 60, 65 and 70°C). […] The 1. order rate constants were derived from the slope of linear plots of log(B∞ -Bt) versus time and for the slow reactions by employing the initial rate method (e.g. (dBt/dt)i = kobsAo), where B∞ and Bt refer to the concentrations of regenerated parent drug at infinity and time t, respectively. (dBt/dt)i repre­sents the initial rate of parent drug formation, whereas kobs and Ao are the pseudo-first-order rate constant and the initial dextran prodrug concentration, respectively. For the fast reactions the initial concentration of the conjugates was in the range 5 - 25 mg/10 ml and for the slow reactions in the range 50 - 250 mg/10 ml. At various times an aliquot of the solutions was withdrawn and analyzed by HPLC for liberated free drug and in some cases for intact dextran prodrug.
A HPLC method was used for the determination of the generated free NSAIDs (the HPLC procedure was further used for determination of the degree of substitution of the polysaccharide prodrugs). […] The flow rate was 1.0 ml/min and the column effluent was monitored at 266 nm. […] Quantitation of the compounds was done by measurements of peak heights in relation to those of standards chromatographed under identical conditions.

[2] = Water solubility of the conjugates (25°C)
[3] = pigs, from a previous study (8), cited from earlier work

## O-[±)-2-(3-phenoxyphenol)propionyl]-dextran T-70 [Example 56]
[1]
  t(50%) at pH 7.40 and 37°C: 130 hours
  Ea: 25.41 kcal/mol
  Arrhenius equation: 1n kobs = 30.6 - 12,790/T (n = 5, r = 0.99)
[1]; 5°C
  t(10%): 59.7 years
[1]; 25°C
  t(10%): 2.72 years
[1]; pH 10.00, 37°C
  kobs: 1.67 h⁻¹
[2]
  water-solubility: > 20 % w/v

## O-[3-(11β,17-dihydroxy-6α-methylpregna-1,4-diene-3,20-dione-21-oxycarbonyl)propionyl]-dextran T-40 [Example 47]
[2]
  water-solubility: > 20 % w/v

## O-[[2-(2,6-dichloroanilino)phenyl]acetyl]-dextran T-500 [Example 61]
[2]
  water-solubility: > 20 % w/v

## O-[2-(4-Isobutylphenyl)propionyl]-dextran T-500 [Example 55]
[1]
  t(50%) at pH 7.40 and 37°C: 141 hours
[2]
  water-solubility: > 20 % w/v

## O-[±)-2-(3-phenoxyphenol)propionyl]-dextran T-500 [Example 58]
[1]
  t(50%) at pH 7.40 and 37°C: 131 hours
[2]
  water-solubility: > 20 % w/v

## O-[2-(3-Benzoylphenyl)propionyl]-dextran T-500 [Example 52]
[1]
  t(50%) at pH 7.40 and 37°C: 91 hours
[2]
  water-solubility: > 20 % w/v

## O-[[2-(2,6-dichloroanilino)phenyl]acetyl]-dextran T-10 [Example 60]
[2]
  water-solubility: > 20 % w/v

## COc1ccc2cc([C@H](C)C(=O)O)ccc2c1 [NAPROXEN, (+)-2-(6-methoxy-2-napthyl)propionic acid]
[3]; i.v., 3.6 mg naproxen equivalents
  β: 0.048 h⁻¹
[3]; naproxen in plasma, p.o.
  β: 0.049 h⁻¹

## O-[[2-(2,6-dichloroanilino)phenyl]acetyl]-dextran T-70 [Example 59]
[1]; 5°C
  t(10%): 21.3 years
[1]; 25°C
  t(10%): 0.65 years
[1]
  Ea: 28.73 kcal/mol
  Arrhenius equation: 1n kobs = 37.6 - 14,450/T (n = 5, r = 0.99)
[1]; pH 9.54, 37°C
  kobs: 3.01 h⁻¹
[2]
  water-solubility: > 20 % w/v

## O-[3-(11β,17-dihydroxy-6α-methylpregna-1,4-diene-3,20-dione-21-oxycarbonyl)propionyl]-dextran T-500 [Example 48]
[2]
  water-solubility: > 20 % w/v

## O-[2-(4-Isobutylphenyl)propionyl]-dextran T-10 [Example 54]
[1]
  t(50%) at pH 7.40 and 37°C: 140 hours
[2]
  water-solubility: > 20 % w/v

## O-[±)-2-(3-phenoxyphenol)propionyl]-dextran T-10 [Example 57]
[1]
  t(50%) at pH 7.40 and 37°C: 128 hours
[2]
  water-solubility: > 20 % w/v

## O-[3-(11β,17-dihydroxy-6α-methylpregna-1,4-diene-3,20-dione-21-oxycarbonyl)propionyl]-dextran T-70 [Example 46]
[2]
  water-solubility: > 20 % w/v

## O-[2-(4-Isobutylphenyl)propionyl]-dextran T-70 [Example 53]
[1]
  t(50%) at pH 7.40 and 37°C: 144 hours
  Ea: 24.14 kcal/mol
  Arrhenius equation: 1n kobs =28.9 - 12,140/T (n = 5, r = 0.97)
[1]; 5°C
  t(10%): 31.5 years
[1]; 25°C
  t(10%): 1.68 years

## O-[2-(3-Benzoylphenyl)propionyl]-dextran T-10 [Example 51]
[1]
  t(50%) at pH 7.40 and 37°C: 93 hours
[2]
  water-solubility: > 20 % w/v

## O-[3-(11β,17-dihydroxy-pregn-4-ene-3,20-dione-21-oxycarbonyl)propionyl]-dextran T-70 [Example 49]
[2]
  water-solubility: > 20 % w/v
